Data published in patent US20090311265A1 (CRUCELL HOLLAND B V, published 2009).
Where a chain is given by its changes, count along the chain named.

B1: CR6296 (antibody, V domains shown)
VH: EVQLVETGAEVKKPGASVKVSCKASGYTFTSYYMHWVRQAPGQGLEWMGWINPNSGGTNYAQKFQGRVTMTRDTSISTAYMELSRLRSDDTAVYYCAREGKWGPQAAFDIWGQGTMVTVSS
VL: EIVMTQSPGTLSLSPGERATLSCRASQSVSSSYLAWYQQKPGQAPRLLIYDASSRATDIPDRFSGSGSGTDFTLTISRLEPEDFAVYYCQQYGSSLWTFGQGTKVEIKR
B2: CR6307 (antibody, V domains shown)
VH: QVQLVQSGGGLVKPGGSLRLSCAASGFTFSSYSMNWVRQAPGKGLEWVSSISSSSSYIYYVDSVKGRFTISRDNAKNSLYLQMNSLRAEDTAVYYCARGGGSYGAYEGFDYWGQGTLVTVSS
VL: EIVLTQSPGTLSLSPGERATLSCRASQRVSSYLAWYQQKPGQAPRLLIYGASTRAAGIPDRFSGSGSGTDFTLTISRLEPEDSAVYYCQQYGRTPLTFGGGTKVEIKR
B3: CR6339 (antibody, V domains shown)
VH: EVQLVESGAEVKKPGSSVKVSCKASGGIFNSYAISWVRQAPGQGLEWMGGIIAIFHTPKYAQKFQGRVTITADESTNTAYMELRSLKSEDTALYYCARGSTYDFSSGLDYWGQGTLVTVSS
VL: QAGLTQPPSVSVAPGQTARITCGGNNIGSKSVHWYQQKPGQAPVLVVYDDSDRPSGIPERFSGSNSGNTATLTISRVEAGDEADYYCQVWDSSSDHVVFGGGTKLTVLG
B4: CR6272 (antibody, V domains shown)
VH: QMQLVQSGAEVKKPGSSVKVSCKASGGTFSSYAITWVRQAPGQGLEWMGGIIGMFGSTNYAQNFQGRVTITADESTSTAYMELSSLRSEDTAVYYCARSTGYYPAYLHHWGQGTLVTVSS
VL: QSALTQPRSVSGSPGQSVTISCTGTSSDVGGYNYVSWYQQHPGKAPKLMIYDVSKRPSGVPDRFSGSKSGNTASLTISGLQAEDEADYYCSSYTSSSTHVFGTGTKVTVLG
B5: CR6323 (antibody, V domains shown)
VH: B4 VH with Q1E, M2V, Q6E, A33G, T35S, G50D, V68L, T100S, H108P
VL: not shown
B6: CR6257 (antibody, V domains shown)
VH: QVQLVQSGAEVKKPGSSVKVSCKASGGPFRSYAISWVRQAPGQGPEWMGGIIPIFGTTKYAPKFQGRVTITADDFAGTVYMELSSLRSEDTAMYYCAKHMGYQVRETMDVWGKGTTVTVSS
VL: B4 VL with R8A, S9A, V18I, D52E, K55N, P61S, D62N, H99Y
B7: CR6141 (antibody, V domains shown)
VH: EVQLVQSGAEVKKPGASVKVSCKASGYTFTGYYVYWVRQAPGQGLEWMGWISAYNGNTNYAQKFQGRVTITADKSTSTAYMELSSLRSEDTAVYYCARSRSLDVWGQGTTVTVSS
VL: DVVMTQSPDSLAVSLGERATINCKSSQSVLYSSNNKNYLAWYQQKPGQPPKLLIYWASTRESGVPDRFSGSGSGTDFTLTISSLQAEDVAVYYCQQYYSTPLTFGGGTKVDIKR
B8: CR6301 (antibody, V domains shown)
VH: EVQLVESGGGLVQPGGSLRLSCAASGFTFSIYAMSWVRQAPGKGLEWVSAISSSGDSTYYADSVKGRFTISRDNARNTLYLQMNSLRAEDTAVYYCARAYGYTFDPWGQGTLVTVSS
VL: not shown
B9: CR6343 (antibody, V domains shown)
VH: QVQLVQSGAEVKKPGSSVKVSCKASGVTFSYYAMSWVRQAPGQGLEWMGGISPMFGTTTYAQKFQGRVTITADDSTSTAYMEVRSLRSEDTAVYYCARSSNYYDSVYDYWGQGTLVTVSS
VL: QSVVTQPPSESVAPGQTARITCGGHNIGSNSVHWYQQKPGQAPVLVVYDNSDRPSGIPERFSGSNSGNTATLTISRVEAGDEADYYCQVWGSSSDHYVFGTGTKVTVLG

How the values were obtained:
[1] = target: T1, soluble recombinant HA (sHA) of H5N1TV (influenza A virus A/Vietnam/1194/2004 …, UniProt Q6J8F6 17-528); assay: immunoblot (data not shown)
[2] = target: T1, soluble recombinant HA (sHA) of H5N1TV; assay: immunoblot, reducing SDS-PAGE
[3] = target: recombinant HA, subtype H3 (A/Wyoming/3/2003(H3N2)) (influenza A virus A/Wyoming/3/2003 …); assay: ELISA, coated HA, IgG 5 µg/ml
[4] = target: T2, recombinant HA, subtype H5 (A/Vietnam/1203/2004 (H5N1)) (influenza A virus A/Vietnam/1203/2004 …, UniProt Q80A26 6-554); assay: ELISA, coated HA, IgG 5 µg/ml
[5] = target: full-length HA from isolate A/Vietnam/1194/2004 (H5N1TV) on PER.C6 cells (influenza A virus A/Vietnam/1194/2004 …, UniProt Q80A26 6-554); assay: flow cytometry, transfected PER.C6 cells
[6] = target: T2, recombinant HA, subtype H5 …; assay: competition ELISA on coated HA, IgG 10 µg/ml, competitor: phage antibodies
[7] = target: recombinant HA, subtype H1 (A/New Caledonia/20/99 (H1N1)) (influenza A virus A/New Caledonia/20/99 …, UniProt Q289M7 18-565); assay: ELISA, coated HA, IgG 5 µg/ml

| Binder | binding result [1] | binding result [2] | OD 492 nm [3] [OD 492 nm] | OD 492 nm [4] [OD 492 nm] | flow cytometry signal at 0.1 µg/ml [5] | flow cytometry signal at 1 µg/ml [5] | flow cytometry signal at 10 µg/ml [5] | residual binding of phage antibody in the presence of the IgG [6] [%] | OD 492 nm [7] [OD 492 nm] |
| --- | --- | --- | --- | --- | --- | --- | --- | --- | --- |
| B1 | binds | – | – | – | – | – | – | – | – |
| B2 | – | binds | 0.11 | 0.99 | 82.4 | 267 | 485 | – | – |
| B3 | – | – | 0.07 | 0.81 | – | – | – | > 25 | – |
| B4 | – | – | 0.07 | 0.58 | – | – | – | > 25 | 0.81 |
| B5 | – | binds | 0.07 | 1.89 | 33.4 | 117 | 445 | – | 2.32 |
| B6 | – | – | 0.08 | 1.37 | 62.1 | 284 | 365 | – | 1.93 |
| B7 | binds | – | – | – | – | – | – | – | – |
| B8 | binds | – | – | – | – | – | – | – | – |
| B9 | – | – | 0.07 | 0.76 | – | – | – | > 25 | 1.28 |
